Test results: US20230045151A1, “COMPOSITIONS AND METHODS” (MONASH UNIVERSITY, priority 2020, published 2023)

Test system: CCL20
Assay: In vitro stimulation of lung cells enriched for airway epithelial cells, chemokine release
Type: cell-based, mouse
Conditions: LPS 10 μg/ml, 24 hours; EGF 100 ng/ml, amphiregulin 500 ng/ml or gefitinib 0.16 μM; lower efficacy than PCS
Experimental: Mice were euthanized by CO2 inhalation, instilled with a 1.5 ml dispase II (Sigma-Aldrich) intratracheally, followed by intratracheal injection of 0.5 ml 1% low melting point agarose (Sigma-Aldrich). Lungs were then covered with ice for 3 min, removed and placed in a 15 ml falcon tube with 2 ml of dispase II, and incubated for 45 min with gentle agitation. This was followed by mechanical disruption of the lung lobes using forceps in DMEM supplemented with DNAse I (Sigma-Aldrich, 1U/ml), filtration through 70- and 40-μM cell strainers (Falcon®, Corning) and lysis of erythrocytes using red blood cell lysing buffer (BD Biosciences). Lung cells were plated in a flat-bottom 24-well or 96-well plates (Costar) coated with fibronectin (Sigma-Aldrich, 10 μg/ml) at the density of 1 mln or 0.2 mln cells/well, respectively.
5% CO2, after which the supernatant was collected and stored at −20° C. until further use.

B1: amphiregulin: low affinity EGFR ligand (protein, UniProt P15514 101-187, looked up)
Amphiregulin: SVRVEQVVKPPQNKTESENTSDKPKRKKKGGKNGKNRRNRKKKNPCNAEFQNFCIHGECKYIEHLEAVTCKCQQEYFGERCGEKSMK
modifications: Amphiregulin
With B1 the “CCL20 production by lung cells stimulated with LPS” value was “selective reduction”.
